In patent publication US20220348617A1 (H LEE MOFFITT CANCER CENTER AND RESEARCH INSTITUTE, published 2022):

Columns and labels:
[1] = biological target: T1, Notch1 EGF domains 6-13 (human, UniProt P46531 218-526); test: SPR, Notch immobilised, DLL4 flowed
T1 construct: domain: EGF domains 6-13; Immobilised on a streptavidin sensor chip; the other passages say only 'Notch 1'
Method: Binding affinities between DLL4 variants and Notch receptor subtypes were determined by surface plasmon resonance (SPR) (FIG. 7). Notch1 EGF domains 6-13, Notch2, EGF domains 6-13, or Notch 3 EGF domains 5-12 were immobilized on a sensor chip and various concentrations of DLL4 ligands were injected over the surface. A co-culture assay was used to monitor the inhibition of Notch signaling by DLL4.v3 (FIG. 8). A fluorescent Notch1 reporter cell line (CHO^N1) was co-cultured with 293T cells expressing wild-type human DLL4 (293TDLL4) in 96-well plates to activate signaling. This value was normalized to 100% Notch1 activation. A reduction in Notch1 activation was observed upon the addition of increasing concentrations of DLL4.v3 (20 nM, 200 nM, 2000 nM) to the co-cultures.

[2] = biological target: T2, Notch 3 EGF domains 5-12 (human, UniProt Q9UM47 197-505); test: SPR, Notch on streptavidin chip, DLL4 flowed
T2 construct: domain: EGF domains 5-12; the other passages say only 'Notch 3'
T2 sequence (looked up): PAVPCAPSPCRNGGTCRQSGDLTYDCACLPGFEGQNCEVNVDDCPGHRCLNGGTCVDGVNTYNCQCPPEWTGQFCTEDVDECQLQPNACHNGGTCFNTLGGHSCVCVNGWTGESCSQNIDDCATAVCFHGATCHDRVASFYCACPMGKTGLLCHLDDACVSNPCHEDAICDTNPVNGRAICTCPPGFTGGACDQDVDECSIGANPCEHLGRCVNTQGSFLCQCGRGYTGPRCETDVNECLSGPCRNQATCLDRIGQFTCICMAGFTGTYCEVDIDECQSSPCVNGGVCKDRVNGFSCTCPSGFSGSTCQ

- binding result [1]: binds
- binding result [2]: binds
B1: wildtype (WT) human DLL4 (ligand)
chain: SGVFQLQLQEFINERGVLASGRPCEPGCRTFFRVCLKHFQAVVSPGPCTFGTVSTPVLGTNSFAVRDDSSGGGRNPLQLPFNFTWPGTFSLIIEAWHAPGDDLRPEALPPDALISKIAIQGSLAVGQNWLLDEQTSTLTRLRYSYRVICSDNYYGDNCSRLCKKRNDHFGHYVCQPDGNLSCLPGWTGEYCQQPICLSGCHEQNGYCSKPAECLCRPGWQGRLCNECIPHNGCRHGTCSTPWQCTCDEGWGGLFCDQDLNYCTHHSPCKNGATCSNSGQRSYTCTCRPGYTGVDCE
notes: Soluble protein flowed over immobilised Notch in SPR; also called wild-type DLL4
